Measured values reported in the domain aggregation screens of Martell et al. (2025).

Experiment: soluble fraction after stress (log2 fold change); higher = more stays soluble; pooled small domains, quantitative proteomics
Conditions: stress: 50 degC
How it was run: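 Custom libraries of small protein domains were pooled and measured in a high-throughput format, with quantitative proteomics as the read-out. Each library was stressed at 50°C. The value is the log2 fold change in the amount of each protein that stays soluble after stress, used as a measure of aggregation propensity; higher values mean more of the protein stays soluble.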

Sequence | soluble fraction (log2)
HMERVIYLLNGREVPAAEIRAAEPEALTVDRFYSSENLPAEYRDRNPELVVAFTAEEPLRHY | 0.358
HMGNTMIVILKHEARQEQIDRLKQFLLGMGLRIDESKGENSTILGLVGDTTRVDADLISSLDAVEAVRRV | -0.0449
HMDKESQTMFRLLTGVSGVGPKVGLAILSVLSPDRVVLAISAGDHKAFTAASGVGPKLGQRIVLELKDKVG | -3.12
HMSTDDILSSITALRLASVQFQLGQFDPALDSLKLVKEQAWSGAKNILAGDIQLAKGDKEAAKASYQQAQQ | -0.38
HMDDPYAGLRQRAYLFLRERDGAVPEEELIEHVFGSSGNPALWRPLLRQVLGADDRLDLRADGYWALRG | 0.118
HMAQISDEGLLRGLIVEMFEANPAVVEELLGGRDRKKGFVIGQIMKKTKGMANPALLDQLFYEELEKL | -0.867
HMANKTISMTTLKLVIQQLSKGISRQSISAQYHISRNTIKKYEKRIKAMDMKIEDILKLSDEEISNLLQ | -1.68
HMSLNSELIARIENLIASIEDKRSWGYGFAESVLGQVQAGATLSPRQLEIIAKLEKENSYSVQLERQ | -0.765
HMGGKWKLRILWHIHHGDTRFSTLKRGIPEISEKILAQQLRELEEHQLIKRRVVTVMPPHVVYEL | -2.28
HMFPELEPDEQLIADLLRKTNNLQINIITVRTGLPINRVTALLFQMEMKGVVRPLAGGTYHLLV | -0.108
HMLDLYYDSEDKLLIDMGTGEVIRSFADDKRSLVFDAQAKILFDEDSGDIVYSSYFDKLITDKLASKS | -0.0393
HMFLTDHEVSKVARKRAHAEYLSSLSWRQRTFGDHGERSKNFEAWYKEHSHLYETEKLYKELYKN | -0.567
HMAPADLSPEERVVLDALALEPVHVDALAAKLGRRSEELLTSLTLMEMRGLAVAHAGSRYSRATMT | 0.0694
HMTMVKYRYLTDGELKEFEEEFKHFLIANGLHSEEWERLNNEDSNKAIEVVALFSNLILDKV | -1.54
HMTGKASEIAALLEQRIAAGDYPAGSKLPSERELAASFHVSRNTIRDAIALLAARKIVSTKWGAGTVVLG | -0.139
HMEEVIEVEGKITAVLPSTMFRAELENGHQVLAHISGKLRKHFIKITVGDIVKMEMSTQDLQKARIV | -0.307
HMKQHPTIDLQIGQKLHYKEDVFEVTRFAKDKNGQDMVILKDPSIGSGIEIPWYRSKLEEIIESGQYKIT | 0.413
HMGIVAQLPTIRVNGKTLYYYDAQSGDNIYSIAEKLGVTVEDIRANNPGVADGVKPRMRLFFPTSLAK | 0.165
HMTGSTSVAQVSTPSGSLNLRAYASTSARVLLQIPEYAFVTVYNRGATWSYVSYNGVSGYVMSVYLSFGG | -1.01
HMGSVVATLRKLIIDGHYPAGTRLAEIPVANALGVSRTPVRLAFRTLQQEGLLQTVGKRGIVVRAF | -1.21
HMSKPTLTDELLTLDLFEEIIKAKENAKGANKRFSLVGFLESKYIVDQEMLPKVNVKVTEYYNLTREN | -0.117
HMSSVEQAILETLSKEHSHLTSLQVFEEIRGRLPAVNQSTVYRALERLVEQGVVSVSDMGTHAAVYE | -0.177
HMTNELVNVNKLLDVMEPSIPLTALEIMTRLGIKSKETLRNSYLNPAIKLGMINLTSPLKPTSKNQMYYK | -0.307
HMSSEYARFFSGNYYEVLGVAKNASYDEIKAAWKKLVKEYHPDLHPQRQEEFTKIIQKINEAYEYFKKMH | -0.0398
HMSREMIKSELESISGLGKSGIEKLYTHFINIENIKSASLENIRNIPGISYKVADNIYKHFH | -0.195
HMITDQQKEQLSSLLKQAEAALAKAAANDQVLAAHKDEAVELLKSTSATSADAADLINELTELLKPYQ | 0.352

Sequence | soluble fraction (log2)
HMAGTAFPVRIMLKGIDRIGLLNEITGYISVAMGVNMRKLNLSTEDGIFEGYIDMLVHDRTVLESMIDNL | -0.381
HMSNVDYSQFKKDTVVEHTKFGRGIIIQTSGDGEDKIAAIAFKGLGVKRFSLAIAAASLKIIGKNDE | -0.0817
HMSEISAEAGKRIRYFRKSRSMTLEELAAVIHKSKATLSKYETGEISIDLDTLYDLAVALQVRAEQLLPAS | -2.29
HMSHANAALTPRARLRLAKLIVEEHWPVATAAKMFMVSPPTARKWATRFRAEGPAGMADRSSRP | -1.46
HMFEQFEVENLQELQQEWGDKFNHNLEMARRAFMNFATPEAVKVLEETGMGNHPELLKVFARIGEVLAED | -0.536
HMSRSKLNRLDKIKKMLIAQTGISIKEFSASLNVSEITIRRDLNLLEEQGFIRLVNGVAIYRM | -1.55
HMQLGQMIVKLRKEQGLTQETFAKKFNVTRQTVSNWENEKSYPDLHTLVKISDEFHLSLDILLK | -2.8
HMQKEIKVPDVANMALSEAVEKLQNEGFKVADEQKEVSSDEIEEGKVVKTSPVAGTKKTKGSEITIYISSG | -0.0254
HMNIAESIRKYRKASGLTQEEMAKRLGVTTPAVSKWENGITNPDIALLAPIARLFHISVDTLLSYR | -0.403
HMPTKSDLLQWIKDRASKMGGAFTNSGAYALADAGVDGPRALSSEINKLLTYVNWERSVEADDVIRL | -0.13
HMSPPPRPSHPEAAGLRHLAFEVDNIDDAVRHLDRLGVPHEPVRTDEYTGRRFLFFTDPDRLPLELYEK | -0.0818
HMKHYMKITDISLQTRDKNRVNVSVDGKYRFSLDVFQVGELGLKVGREYTDEELTALEDESQFG | -1.41
HMPPSGPWEQDPPSEAQLKPFNEAMKRTADIDVDLYEKAKKALNDGTITKGNIYDWINREDSPWVLQDGS | 0.141
HMNTVSPAVSAQLRQELGGELNNANFQQLQQYLQAGQRDEAIVYLTSLGIESPRAVSIVNNAMDQIG | 0.124
HMTGSLRIKHKTYYMLFSWKDESGQWRQKSESTGIPERGGKRKAQEMLNTRLEELQLQSTASL | -3.75
HMIDSEEVMETIQDLGYSPVFDVKEKFYKIKEEQIGKITLEVHIILRYGMVDLVWIVRENGELLLG | 0.138
HMDRTLTYTVSIEESDLRADQFLSRRGFSSHLLTRLRKNMEHLLINGTPSRTNTHLHEGDILTVHIVEE | -0.479
HMDDEELDALKGIPANEYTQEQIKQISEVFHTLQKNEVKDWLNSLQLRNIELPFELRNEVFSQ | 0.159
HMEPALYRLFMAHPELNASAVARRLGIAQSLLAQYISGSKKPSPERERMILTEIHKIGEELATAS | -0.65
HMIERKLRKKEHFIASVGEKVKIKNFATETYKGELISADNEKVVVETEFGKEEITYDNILAAATYFE | -0.135
HMLIDSEILKKTNKITIFLIYAFFSEYLINKEKKKILIGEYIKLSKDFLTIEEVKYFNHLLDDISK | 0.0074
HMNYEFLEKIGFSSNEAKVYGTLIKHKVLNGYEIAKLSGVARSLVYEVINRLVAKGAVIRIDGEPNFYKP | -1.8
HMKQFVVQYYGIDGEVINSVYKNGMSDLTSYEPEKIDGKNFKGWSLSEDSKKVIDENYRINSDVNLYAVYT | 0.0253
HMEVPQVETEKVEAKLKEAEVLLVKVTDSSLKANATETLAGLRNNLTLQTMDNNGIMAEAEKLLALLRES | 0.0393
HMQDVVERIKKYKQLFSITSEELSKRSGIPLGTLNKILSSSTKSIKTETLAAIAKGLDVSVSDLVGREK | 0.0602
HMPAKDAEFTAFVRSATPTLTRTAYLLTGDRETASDLVQEAFVRTYLAWRRVRPEEATAYTRRVLVN | 0.0368

Sequence | soluble fraction (log2)
HMKNSKIVIQKRHNHILELLKQNRTMDVTVLAERLGVTGATIRRDLKKLEQEGTIVRSFGKVSFVG | -0.867
HMHGSSVEIPNIYGLPASEAVQLLDKADLRYEVIDSVYTTEVPKGAVYDLSPKAGSRVKAGRIIFLTLNA | -0.756
HMEQMSLISKKKGERIDKFLGENLGDLSRSYIQKLLKDGLILVNGKKVKANYKLNEGDQIDVEVPDP | 0.303
HMDAKSRFQEWVQAETGITPTYRIIGDSGPDHAKTFIAQVLLGERVVGEGVGSSKRAAEQAAAQAALAAM | 0.186
HMAAELQALSVRELEVLDQLAGGASNREIAQRLYISENTVRNHVHSILTKLKLQNRTQLVGMT | -0.239
HMDAVLMEYDRLLALELTEDPDVYQDLLDKVREQSLGADGRVTDKYREKFDAVATRFDDYEDNYQW | -0.52
HMEWNPEKQHLLENYITNYSRQLNDTGLFYKNLDWNYIFNLVGVDDQEFLMLKIDEIYDESINVY | -0.521
HMKIERKGDESYLSFVERATSALSDGLIDYQQWGRAVVGEDLYSEENTRRIAKFFAQFIQNLEND | -1.9
HMAAGLTPKQKAFADNYIKNGGNAAEAARAAGYSLKNVGANAGKLLKNPKIAAYIAEKQAELDRRNGT | 0.155
HMAPPTAEFFAHLPAEALSAVRRSVEEGNARGIDEAILRVETLDGEAGRVLRGLAARYEYGRILELTQR | 0.117
HMTEDQDWAIFKQKLKAQTEIDLDLYKEPQMKHRIKNLIQNAGFDSYVQYFDYVYLNQDRLAAFLENLTV | 0.0704
HMWMQKILGNYIAARRKELGMTQANLAEKIHVTDKAVSRWERGVGLPDIENLEALAKALEVSLVSLMQGKT | -1.59
HMETIVGIDPDSKKKIVLKKGIKGRPDYLSFNKKNYSLPSELKEKNVSLEQALEIINDKKSNKKKIK | 0.334
HMSILSIGLERGMKKGVAWGIAKSILDILEETGPVSEKTREMIVTETDAERLSAWVKKAARSNSEEDFLSK | -0.631
HMQLTPAQHAILAKAIHSSDGKIEWFPDNVKGGARKKVLEGMFNRALITPDGEGWRIAAEGYDALGMPRP | -0.0604
HMGIAWGMLREQVAASDVSYRSEVLDILDRTPVWIYDAEGKIVDGRKKRLMDLQGGEPYRHMLEHFFPDLR | -2.48
HMSSASETQYELALQAMRDGDNDAALRSLSTALASGFSDWQRIDEEPLLAALANDVRFQVLRSRWK | 0.0414
HMQKYEDIINVTRERLQNKFYSQTVIPTDDDIYIWLDKVAILEEIKLSKEDRQMLFNLLKKEAT | -0.451
HMSDIDIDVENDRAALAIAGGKLNHLVGARGEVLDALQELTRLAVQTSLGERSRLMLDIDNFRSD | -0.00224
HMDSEQLSGLVNMGFSVYQAKTALEMFDNDIERAANYL | -0.425
HMIPYQDPLPKGAEESLLSKYPGFEITGVHFVNDTNFIGYKVRLERGEDREEISLDVNGKFL | 0.0829
HMEEVVIPDLAGLTEEEATKVLMAKELKLKVSGSQHSDIEKGLIISQDPPAGEKGAKNSQVAVVTSSG | 0.103
HMDTYKGFIFEVVDKYFSPTLNQKIGQAKNKQGIVLLQTKPSFTQDPKVLIEELKLIIDRDNLKA | -0.145
HMEKEFLFNGGKVVMNYEADRIQIMHDTKPGQDVITLMKKNGFKWSPFNKAWQRQITANAIYTTKHLINQ | -1.5
